Results reported in patent US20230416363A1 (KADMON, published 2023).

Columns and labels:
[1] = biological target: T1, human PD-1 expressed on cells (human, UniProt Q15116 25-288); assay: cell-based or functional assay
[2] = biological target: T2, hPD-1-Fc (human, UniProt Q15116 25-167); assay: SPR Biacore T200, PD-1-Fc immobilised
T2 construct: domain: IgV domain; also called human PD-1-Fc; not shown: human IgG1 Fc

[3] = biological target: T1, human PD-1 expressed on cells; assay: flow cytometry, hPD1-293 cells
[4] = biological target: T3, hPD-1-his (human, UniProt Q15116 25-167); assay: ELISA, PD-1-his on anti-his
T3 construct: domain: IgV domain; monomer in solution; biotin-labelled where captured by streptavidin; also called biotin-hPD-1-his
T3 sequence (Q15116 other isoform, or with tags, fused parts or gaps limits assumed): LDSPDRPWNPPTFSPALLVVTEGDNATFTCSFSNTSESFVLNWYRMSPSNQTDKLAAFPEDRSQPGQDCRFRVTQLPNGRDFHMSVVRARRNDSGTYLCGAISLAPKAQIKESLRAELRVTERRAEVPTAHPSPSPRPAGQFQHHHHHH

[5] = biological target: T1, human PD-1 expressed on cells; assay: flow cytometry, hPD-1-293 cells
[6] = biological target: T2, hPD-1-Fc; assay: blocking ELISA, PD-1 to PD-L1
[7] = biological target: T3, hPD-1-his; assay: SPR Biacore T200, PD-1-his immobilised
[8] = biological target: T1, human PD-1 expressed on cells; assay: cell-based or functional assay; remark: listed apart in the source
[9] = biological target: T4, mPD-1-Fc (mouse; human, UniProt Q02242 25-167, limits assumed); assay: SPR Biacore
T4 construct: domain: IgV domain; not shown: human IgG1 Fc
T4 sequence (looked up): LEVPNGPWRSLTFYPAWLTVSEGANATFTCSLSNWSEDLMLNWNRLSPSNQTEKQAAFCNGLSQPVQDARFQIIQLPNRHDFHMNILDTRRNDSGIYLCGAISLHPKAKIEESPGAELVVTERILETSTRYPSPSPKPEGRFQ

[10] = biological target: T5, mPD-1-his (mouse, UniProt Q02242 25-167, limits assumed); assay: SPR Biacore
T5 construct: domain: IgV domain
T5 sequence: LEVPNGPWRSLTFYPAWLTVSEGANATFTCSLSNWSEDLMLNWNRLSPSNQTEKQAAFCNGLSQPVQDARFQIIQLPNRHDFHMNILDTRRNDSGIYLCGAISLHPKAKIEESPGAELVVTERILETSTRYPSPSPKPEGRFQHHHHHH

[11] = biological target: T3, hPD-1-his; assay: ELISA, PD-1-his on streptavidin
[12] = biological target: T1, human PD-1 expressed on cells; assay: flow cytometry, activated PBMC donor two
[13] = biological target: T1, human PD-1 expressed on cells; assay: cell-based or functional assay; remark: listed apart in the source
[14] = biological target: T2, hPD-1-Fc; assay: SPR, Exp. 1
[15] = biological target: T3, hPD-1-his; assay: SPR, Exp. 1
[16] = biological target: T1, human PD-1 expressed on cells; assay: flow cytometry, SEB-activated PBMC donor two
[17] = biological target: T6, hPD1 (soluble, ELISA of Example 20) (human, UniProt Q15116 25-167, limits assumed); assay: ELISA, hPD1
T6 sequence (Q15116 25-167 limits assumed): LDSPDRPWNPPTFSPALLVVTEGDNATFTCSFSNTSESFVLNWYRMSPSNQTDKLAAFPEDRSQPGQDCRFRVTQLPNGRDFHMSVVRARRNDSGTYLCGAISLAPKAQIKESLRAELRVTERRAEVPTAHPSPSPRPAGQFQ

[18] = biological target: T1, human PD-1 expressed on cells; assay: flow cytometry, hPD-1-Jurkat cells
[19] = biological target: T2, hPD-1-Fc; assay: SPR, range over experiments
[20] = biological target: T1, human PD-1 expressed on cells; assay: flow cytometry, hPD1-Jurkat cells
[21] = biological target: T2, hPD-1-Fc; assay: SPR, Exp. 3
[22] = biological target: T3, hPD-1-his; assay: SPR, Exp. 3
[23] = biological target: T7, mPD1 (soluble, ELISA of Examples 20 and 24) (mouse, UniProt Q02242 25-167, limits assumed); assay: ELISA, mPD1
T7 construct: also called Biotin-mPD1
T7 sequence (looked up): T4 sequence (looked up)

[24] = biological target: T1, human PD-1 expressed on cells; assay: flow cytometry, activated PBMC donor FA
[25] = biological target: T2, hPD-1-Fc; assay: blocking ELISA, PD-1 to PD-L2
[26] = biological target: T1, human PD-1 expressed on cells; assay: flow cytometry, SEB-activated PBMC donor
[27] = biological target: T2, hPD-1-Fc; assay: SPR Biacore, hPD1-Fc
[28] = biological target: T6, hPD1 (soluble, ELISA of Example 20); assay: blocking ELISA, hPD1 to hPDL1
[29] = biological target: T2, hPD-1-Fc; assay: ELISA, hPD-1-Fc coated
[30] = biological target: T1, human PD-1 expressed on cells; assay: flow cytometry, hPD1-Jurkat cells; remark: listed apart in the source
[31] = biological target: T1, human PD-1 expressed on cells; assay: cell-based or functional assay; remark: listed apart in the source
[32] = biological target: T2, hPD-1-Fc; assay: ELISA, PD-1-Fc coated
[33] = biological target: T3, hPD-1-his; assay: SPR, Exp. 4
[34] = biological target: T2, hPD-1-Fc; assay: blocking ELISA, hPD-1 to hPD-L1; parameters: unit not given here
[35] = biological target: T1, human PD-1 expressed on cells; assay: flow cytometry, hPD1-293 cells; remark: listed apart in the source
[36] = biological target: T2, hPD-1-Fc; assay: SPR, Exp. 2
[37] = biological target: T3, hPD-1-his; assay: SPR, Exp. 2
[38] = biological target: T3, hPD-1-his; assay: ELISA, biotin-PD-1-his on streptavidin
[39] = biological target: T3, hPD-1-his; assay: ELISA, PD-1-his on anti-his; remark: listed apart in the source

T1 sequence (Q15116 25-288): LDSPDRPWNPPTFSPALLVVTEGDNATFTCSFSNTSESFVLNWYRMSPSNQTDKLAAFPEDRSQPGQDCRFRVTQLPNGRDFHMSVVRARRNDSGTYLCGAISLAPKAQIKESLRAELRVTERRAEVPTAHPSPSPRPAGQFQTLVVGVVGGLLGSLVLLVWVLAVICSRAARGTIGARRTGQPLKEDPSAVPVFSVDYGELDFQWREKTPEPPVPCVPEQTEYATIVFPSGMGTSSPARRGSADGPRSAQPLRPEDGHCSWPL
T2 sequence (Q15116 25-167 limits assumed): as the sequence (Q15116 25-167 limits assumed) above

B1: 38B2 (antibody, V domains shown)
VH: EVQLLESGGGLVQPGGSLRLSCAASGFTFSSYWMSWVRQAPGKGLEWVSAISGSGGSTYYADSVKGRFTISRDNSKNTLYLQMNSLRAEDTAVYYCASSPLQWVDVWGQGTTVTVSS
VL: DIQMTQSPSSLSASVGDRVTITCRASESISSWLAWYQQKPGKAPKLLIYDASSLESGVPSRFSGSGSGTDFTLTISSLQPEDFATYYCQQGDSFPFTFGQGTKLEIK
notes: 24H9 derivative, IgG; also called 780_54; hPD1 Ab (38B2)
In the case of B1, the “EC50, Promega blockade bioassay” value [1] is reported as 0.154 µg/mL, the Fold induction [1] is reported as 6.54 fold and the Kd [2] is reported as 0.249 nM. The EC50 [3] was 0.267 nM, the “OD at 10 nM” value [4] was 0.662 OD and the “MFI, 5 nM” value [5] was 297 MFI. The IC50 [6] was 2.37 nM, the “Inhibition % at 50 nM” value [6] was 93.9% and the “Inhibition, % at 5.56 nM” value [6] was 92.7%. The Kd [7] was 0.318 nM, the “EC50 (read off the curve)” value [8] was about 0.5 nM and the binding result [9] was “no binding”. For the same binder, the binding result [10] was “no binding”, the “OD at 10 nM” value [11] was 1.04 OD and the EC50 [12] was 0.1 nM. For the same binder, the “MFI at 25 nM” value [12] was 16.7 MFI, the “EC50, Promega blockade bioassay, Exp. 1” value [13] was 0.189 µg/mL and the “EC50, Promega blockade bioassay, Exp. 2” value [13] was 0.135 µg/mL. The “Fold induction at 12 µg/ml, Exp. 1” value [13] was 7.61 fold, the “Fold induction at 12 µg/ml, Exp. 2” value [13] was 8.31 fold and the Kd [14] was under 0.033 nM. For the same binder, the Kd [15] was 0.946 nM, the “MFI, 5 nM” value [16] was 55.3 MFI and the EC50 [17] was 0.125 nM. For the same binder, the “MFI, 5 nM” value [18] was 60.8 MFI, the Kd [19] was 0.01 to 0.03 nM and the EC50 [20] was 0.137 nM. The Kd [21] was under 0.01 nM, the Kd [22] was 0.932 nM and the binding result [23] was “no binding”. The EC50 [24] was 0.15 nM, the “MFI at 25 nM” value [24] was 16.6 MFI and the IC50 [25] was 1.93 nM. For the same binder, the “Inhibition, % at 3.7 nM” value [25] was 93.9%, the “Inhibition, % at 100 nM” value [25] was 95.1% and the “MFI, 5 nM” value [26] was 64.2 MFI. It also gave a Kd [27] of 0.147 nM, a koff [27] of 3.26e-05 s⁻¹ and a kon [27] of 221000 M⁻¹ s⁻¹. The IC50 [28] was 4.25 nM, the “OD at 10 nM” value [29] was 1.05 OD and the EC50 [30] was 0.16 nM. For the same binder, the “MFI at 5 nM” value [30] was 91 MFI, the “EC50 averaged from two experiments, Promega blockade bioassay” value [31] was 0.154 µg/mL and the “IC50, Promega blockade bioassay” value [31] was 0.725 nM. The EC50 [32] was 0.096 nM, the Kd [33] was 0.205 nM and the “Inhibition at 50 nM” value [34] was 93.4. The EC50 [35] was 0.12 nM, the “MFI at 5 nM” value [35] was 118 MFI and the Kd [36] was under 0.01 nM. For the same binder, the Kd [37] was 0.423 nM, the EC50 [38] was 0.081 nM and the EC50 [39] was 0.06 nM.
